B1: Cyanovirin-N, P81180 (parent)
chain: LGKFSQTCYNSAIQGSVLTSTCERTNGGYNTSSIDLNSVIENVDGSLKWQPSNFIETCRNTQLAGSSELAAECKTRAQQFVSTKINLDDHIANIDGTLKYE

Variants of: B1
Details: Nostoc ellipsosporum, pH 6, sodium phosphate 20 mM, transition: 2, reversible: yes(90%), structure 1IIY, whole UniProt chain shown; for denaturant m value / denaturant midpoint (higher = more stable): 25 °C, GdnHCl; for Tm / change of melting temperature, mutant - wild type (higher = more stable): Thermal

Row | Variant | denaturant m value (CD) [kcal/mol/M] | denaturant midpoint (higher = more stable) (CD) [M] | denaturant m value (fluorescence) [kcal/mol/M] | denaturant midpoint (higher = more stable) (fluorescence) [M] | Tm (CD) [°C] | change of melting temperature, mutant - wild type (higher = more stable) (CD) [°C]
1 | P51G | 2.5 | 2.2 | 2.6 | 2.3 | 64.3 | -2.3
2 | P51G S11A S20A | 2.4 | 2.5 |  |  | 69.6 | 3
3 | P51G S11A S20A T61I | 1.7 | 3.3 | 2.1 | 3.5 | 75.8 | 9.2
4 | P51G S11I S20A | 2 | 3.1 |  |  |  | 
5 | P51G S11V S20A | 2.6 | 2.8 | 2.6 | 2.8 | 69.8 | 3.2
6 | P51G S11V S20A T61V | 1.7 | 2.9 | 2.1 | 3 | 74.5 | 7.9

Reference: FireProtDB (doi:10.1021/bi201411c)
